In the supplement of paper PMC10065799, “High-throughput profiling of sequence recognition by tyrosine kinases and SH2 domains using bacterial peptide display” (eLife, 2023):

Assays:
c-Src SH2 = test: SH2 binding enrichment of the phosphorylated peptide, bacterial display (enrichment ratio); higher = better substrate or ligand; peptides without Tyr show the background
Grb2 SH2 = Grb2 SH2 (UniProt P62993); test: as above
SHP2-C SH2 = test: as above
c-Abl (mouse) = test: phosphorylation enrichment, bacterial display (enrichment ratio); higher = better substrate or ligand; peptides without Tyr show the background
Jak2 = Jak2 (UniProt O60674); test: as above
Hck = Hck (UniProt P08631); test: as above
Hck, sequence (P08631 whole entry, looked up): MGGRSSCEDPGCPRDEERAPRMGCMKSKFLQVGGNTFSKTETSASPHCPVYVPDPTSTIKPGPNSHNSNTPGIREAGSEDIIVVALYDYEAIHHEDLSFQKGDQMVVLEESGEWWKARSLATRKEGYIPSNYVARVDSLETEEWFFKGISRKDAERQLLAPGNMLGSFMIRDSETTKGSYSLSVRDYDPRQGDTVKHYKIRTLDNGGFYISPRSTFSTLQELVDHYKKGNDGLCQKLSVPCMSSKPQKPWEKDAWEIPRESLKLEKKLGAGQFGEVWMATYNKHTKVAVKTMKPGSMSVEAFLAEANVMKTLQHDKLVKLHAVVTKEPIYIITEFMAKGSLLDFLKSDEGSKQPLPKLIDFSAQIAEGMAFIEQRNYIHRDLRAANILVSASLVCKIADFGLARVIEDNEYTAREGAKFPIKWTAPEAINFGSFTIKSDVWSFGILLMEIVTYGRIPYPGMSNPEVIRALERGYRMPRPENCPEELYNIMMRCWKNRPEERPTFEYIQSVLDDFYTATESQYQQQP

AncSZ = test: as above
Fer (mouse) = test: as above
FGFR3 = FGFR3 (UniProt P22607); test: as above
FGFR3, sequence (P22607 whole entry, looked up): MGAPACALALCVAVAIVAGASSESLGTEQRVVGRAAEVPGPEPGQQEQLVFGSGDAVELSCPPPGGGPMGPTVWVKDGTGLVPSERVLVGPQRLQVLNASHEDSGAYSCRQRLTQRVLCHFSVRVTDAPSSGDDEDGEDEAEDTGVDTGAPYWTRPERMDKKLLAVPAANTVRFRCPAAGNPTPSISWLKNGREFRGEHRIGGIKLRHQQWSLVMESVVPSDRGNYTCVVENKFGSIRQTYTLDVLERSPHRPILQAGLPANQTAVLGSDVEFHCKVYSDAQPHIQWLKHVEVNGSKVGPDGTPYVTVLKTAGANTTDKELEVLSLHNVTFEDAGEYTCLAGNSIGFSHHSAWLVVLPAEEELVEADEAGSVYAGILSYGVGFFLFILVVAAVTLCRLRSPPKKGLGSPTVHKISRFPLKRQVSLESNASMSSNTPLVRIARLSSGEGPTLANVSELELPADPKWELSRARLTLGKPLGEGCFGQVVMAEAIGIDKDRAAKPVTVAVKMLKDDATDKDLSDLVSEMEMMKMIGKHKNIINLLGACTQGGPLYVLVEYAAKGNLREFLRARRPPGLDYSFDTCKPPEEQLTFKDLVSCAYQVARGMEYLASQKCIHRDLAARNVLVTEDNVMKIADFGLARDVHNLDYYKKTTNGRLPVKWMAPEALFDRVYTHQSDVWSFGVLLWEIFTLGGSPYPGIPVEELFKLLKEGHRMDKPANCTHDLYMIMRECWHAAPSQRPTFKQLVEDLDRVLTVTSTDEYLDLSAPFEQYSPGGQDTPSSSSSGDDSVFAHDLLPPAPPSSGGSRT

FGFR1 = FGFR1 (UniProt P11362); test: as above
Fes = Fes (UniProt P07332); test: as above
Fes, sequence (P07332 whole entry, looked up): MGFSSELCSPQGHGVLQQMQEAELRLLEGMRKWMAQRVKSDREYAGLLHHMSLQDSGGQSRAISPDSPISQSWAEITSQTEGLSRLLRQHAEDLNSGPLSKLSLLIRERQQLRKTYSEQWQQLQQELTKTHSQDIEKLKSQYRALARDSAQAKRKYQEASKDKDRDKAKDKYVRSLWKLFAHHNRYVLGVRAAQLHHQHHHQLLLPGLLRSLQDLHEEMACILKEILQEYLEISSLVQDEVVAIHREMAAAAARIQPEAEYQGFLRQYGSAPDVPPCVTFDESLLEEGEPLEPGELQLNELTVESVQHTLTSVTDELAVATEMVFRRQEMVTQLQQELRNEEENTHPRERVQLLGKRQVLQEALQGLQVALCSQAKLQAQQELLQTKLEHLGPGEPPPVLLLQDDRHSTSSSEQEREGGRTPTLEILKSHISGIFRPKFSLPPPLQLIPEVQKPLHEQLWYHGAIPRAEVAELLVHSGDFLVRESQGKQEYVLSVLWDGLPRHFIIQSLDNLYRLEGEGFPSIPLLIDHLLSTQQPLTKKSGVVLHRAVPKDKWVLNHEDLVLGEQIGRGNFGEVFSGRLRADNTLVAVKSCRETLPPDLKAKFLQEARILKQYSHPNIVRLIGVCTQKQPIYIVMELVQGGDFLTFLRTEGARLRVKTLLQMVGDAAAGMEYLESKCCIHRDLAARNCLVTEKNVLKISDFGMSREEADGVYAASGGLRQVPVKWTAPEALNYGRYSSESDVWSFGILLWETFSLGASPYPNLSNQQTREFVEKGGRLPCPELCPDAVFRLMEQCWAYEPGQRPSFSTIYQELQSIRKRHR

Fyn = Fyn (UniProt P06241); test: as above
Fyn, sequence (P06241 whole entry, looked up): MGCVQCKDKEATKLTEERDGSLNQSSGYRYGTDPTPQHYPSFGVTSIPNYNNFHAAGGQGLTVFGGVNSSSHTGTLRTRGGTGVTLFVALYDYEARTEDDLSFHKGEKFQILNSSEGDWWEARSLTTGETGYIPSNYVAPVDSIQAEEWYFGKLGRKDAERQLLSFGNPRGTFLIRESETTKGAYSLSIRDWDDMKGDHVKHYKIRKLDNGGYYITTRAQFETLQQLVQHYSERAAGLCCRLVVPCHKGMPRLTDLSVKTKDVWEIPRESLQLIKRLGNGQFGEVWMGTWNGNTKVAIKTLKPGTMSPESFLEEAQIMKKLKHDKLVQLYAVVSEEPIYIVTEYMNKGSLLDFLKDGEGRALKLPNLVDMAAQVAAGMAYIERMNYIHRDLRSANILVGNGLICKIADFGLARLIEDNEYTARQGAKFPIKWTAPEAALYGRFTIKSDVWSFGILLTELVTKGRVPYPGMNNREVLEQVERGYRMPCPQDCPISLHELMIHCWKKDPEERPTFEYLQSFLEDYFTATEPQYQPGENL

MERTK = MERTK (UniProt Q12866); test: as above
c-Src = test: as above
EPHB1 = EPHB1 (UniProt P54762); test: as above
EPHB1, sequence (P54762 whole entry, looked up): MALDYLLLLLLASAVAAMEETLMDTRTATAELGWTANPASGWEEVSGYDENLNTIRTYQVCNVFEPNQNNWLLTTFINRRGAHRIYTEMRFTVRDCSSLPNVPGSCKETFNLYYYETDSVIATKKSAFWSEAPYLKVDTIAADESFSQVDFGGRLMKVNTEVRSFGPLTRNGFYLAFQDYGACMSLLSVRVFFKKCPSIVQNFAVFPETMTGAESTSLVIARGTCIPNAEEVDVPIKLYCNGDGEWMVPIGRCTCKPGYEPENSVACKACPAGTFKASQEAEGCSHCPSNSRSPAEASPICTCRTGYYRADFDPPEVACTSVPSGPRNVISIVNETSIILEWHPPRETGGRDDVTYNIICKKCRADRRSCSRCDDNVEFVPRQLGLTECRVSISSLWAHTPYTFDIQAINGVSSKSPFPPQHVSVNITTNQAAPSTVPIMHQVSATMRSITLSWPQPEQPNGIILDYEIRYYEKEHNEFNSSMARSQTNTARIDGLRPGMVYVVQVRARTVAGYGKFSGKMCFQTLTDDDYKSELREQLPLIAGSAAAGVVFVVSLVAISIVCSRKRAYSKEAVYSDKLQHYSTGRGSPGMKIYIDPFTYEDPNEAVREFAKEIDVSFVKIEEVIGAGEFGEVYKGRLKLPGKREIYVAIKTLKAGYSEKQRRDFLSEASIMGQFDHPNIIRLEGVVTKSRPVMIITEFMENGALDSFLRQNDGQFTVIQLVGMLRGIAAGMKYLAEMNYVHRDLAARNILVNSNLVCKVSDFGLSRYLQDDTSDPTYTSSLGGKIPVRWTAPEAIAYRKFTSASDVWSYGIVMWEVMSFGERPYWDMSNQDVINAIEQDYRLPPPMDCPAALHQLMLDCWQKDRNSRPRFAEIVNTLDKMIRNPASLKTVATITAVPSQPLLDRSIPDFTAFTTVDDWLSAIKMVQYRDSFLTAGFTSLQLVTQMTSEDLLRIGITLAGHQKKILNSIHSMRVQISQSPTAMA

EPHB2 = EPHB2 (UniProt P29323); test: as above
EPHB2, sequence (P29323 whole entry, looked up, the tested form may be a part): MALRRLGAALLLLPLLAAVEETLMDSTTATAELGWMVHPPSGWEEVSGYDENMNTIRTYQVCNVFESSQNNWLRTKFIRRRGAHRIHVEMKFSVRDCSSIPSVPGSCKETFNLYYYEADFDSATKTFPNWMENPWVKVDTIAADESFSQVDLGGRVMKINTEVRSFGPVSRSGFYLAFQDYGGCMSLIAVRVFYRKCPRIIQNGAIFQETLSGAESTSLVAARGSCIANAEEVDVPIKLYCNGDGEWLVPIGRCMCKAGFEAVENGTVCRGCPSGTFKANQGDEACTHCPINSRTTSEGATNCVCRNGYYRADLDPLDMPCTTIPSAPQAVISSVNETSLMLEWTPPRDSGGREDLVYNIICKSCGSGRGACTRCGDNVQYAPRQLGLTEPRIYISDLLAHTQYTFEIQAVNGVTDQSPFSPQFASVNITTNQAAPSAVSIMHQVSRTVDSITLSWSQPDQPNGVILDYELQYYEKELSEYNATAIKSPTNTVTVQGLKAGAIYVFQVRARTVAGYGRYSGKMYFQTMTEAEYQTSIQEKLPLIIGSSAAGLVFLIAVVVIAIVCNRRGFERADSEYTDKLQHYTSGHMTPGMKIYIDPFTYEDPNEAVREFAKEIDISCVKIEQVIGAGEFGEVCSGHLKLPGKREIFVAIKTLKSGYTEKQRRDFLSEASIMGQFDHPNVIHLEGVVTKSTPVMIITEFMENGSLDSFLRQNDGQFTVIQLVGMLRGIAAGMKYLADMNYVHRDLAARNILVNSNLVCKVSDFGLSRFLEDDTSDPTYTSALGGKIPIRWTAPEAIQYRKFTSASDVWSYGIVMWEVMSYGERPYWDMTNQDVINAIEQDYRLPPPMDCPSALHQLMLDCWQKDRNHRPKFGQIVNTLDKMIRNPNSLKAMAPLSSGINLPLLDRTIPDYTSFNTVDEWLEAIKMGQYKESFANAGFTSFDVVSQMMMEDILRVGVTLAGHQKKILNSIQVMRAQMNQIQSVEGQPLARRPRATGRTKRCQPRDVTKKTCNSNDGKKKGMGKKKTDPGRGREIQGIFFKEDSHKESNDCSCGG
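Wherever SH2 binding enrichment of the phosphorylated peptide, bacterial display is given: peptide library displayed on the E. coli surface as eCPX fusions, selected cells deep-sequenced, score is each peptide's frequency after selection divided by its frequency in the input.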
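Wherever phosphorylation enrichment, bacterial display is given: 11-residue human phosphosite peptides and single-mutation variants displayed on the E. coli surface, counted by deep sequencing, each peptide's frequency after selection divided by its frequency in the unselected input library; frequency after pTyr selection over input frequency; kinase dosed for 20-30% of maximal phosphorylation in three min.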

Row | SH2 binding enrichment (c-Src SH2) | SH2 binding enrichment (Grb2 SH2) | SH2 binding enrichment (SHP2-C SH2) | Sequence | phosphorylation enrichment (c-Abl (mouse)) | phosphorylation enrichment (Jak2) | phosphorylation enrichment (Hck) | phosphorylation enrichment (AncSZ) | phosphorylation enrichment (Fer (mouse)) | phosphorylation enrichment (FGFR3) | phosphorylation enrichment (FGFR1) | phosphorylation enrichment (Fes) | phosphorylation enrichment (Fyn) | phosphorylation enrichment (MERTK) | phosphorylation enrichment (c-Src) | phosphorylation enrichment (EPHB1) | phosphorylation enrichment (EPHB2)
1 | 0.391 | 0.946 | 0.392 | MQMEEYRGWVE [BTNL2_Y91] | 0.545 | 1.25 | 0.464 | 1.22 | 0.449 | 0.599 | 0.488 | 1.07 | 0.409 | 0.423 | 0.553 | 0.503 | 0.711
2 | 0.286 | 0.701 | 0.512 | MSPPGYKLVTG [GJA1_Y286] | 0.485 | 0.686 | 0.418 | 0.541 | 0.516 | 0.533 | 0.476 | 0.715 | 0.427 | 0.397 | 0.429 | 0.667 | 0.381
3 | 0.656 | 1.03 | 0.809 | MSRDVYSIDFF [NTRK2_Y702_T704I_YF] | 0.652 | 0.889 | 4.17 | 1.02 | 1.16 | 1.2 | 1.61 | 1.05 | 8.38 | 7.45 | 6.79 | 1.23 | 1.17
4 | 0.376 | 0.674 | 0.435 | MTEEQYIKMNR [ARFGEF2_Y797_K794E] | 0.612 | 1.02 | 0.493 | 0.941 | 0.524 | 0.638 | 0.558 | 1.09 | 0.451 | 0.386 | 0.441 | 0.478 | 0.502
5 | 0.515 | 0.921 | 0.783 | MTFQNYGQALF [FAM20C_Y279] | 0.605 | 0.893 | 0.462 | 0.901 | 0.496 | 0.739 | 0.46 | 0.827 | 0.458 | 0.429 | 0.489 | 0.758 | 1.65
6 | 0.997 | 0.855 | 0.565 | MTRDIYETDFF [INSR_Y1185_YF] | 0.909 | 1.23 | 1.4 | 1.13 | 1.15 | 0.821 | 0.56 | 1.39 | 1.93 | 1.22 | 2.06 | 0.936 | 0.788
7 | 0.514 | 0.735 | 0.748 | MYQVQYNSSVD [LRFN1_Y458] | 0.52 | 0.721 | 0.505 | 1.05 | 0.52 | 0.686 | 0.488 | 0.963 | 0.559 | 0.699 | 0.417 | 0.606 | 0.69
8 | 0.592 | 0.979 | 0.837 | NAGAFYALSTL [FLVCR2_Y325] | 0.608 | 0.751 | 0.752 | 0.784 | 3.19 | 0.649 | 0.61 | 0.764 | 0.567 | 4.76 | 1.23 | 0.822 | 0.784
9 | 0.489 | 0.634 | 0.6 | NAGAFYVLSTL [FLVCR2_Y325_A326V] | 0.69 | 0.995 | 0.476 | 1.03 | 0.525 | 0.699 | 0.483 | 1.17 | 0.464 | 0.705 | 0.523 | 0.55 | 0.573
10 | 0.332 | 0.897 | 0.32 | NAPNSYGRRLI [CDKN2A_Y44_P48L] | 0.48 | 0.531 | 0.504 | 0.627 | 0.475 | 0.509 | 0.446 | 0.616 | 0.413 | 0.442 | 0.449 | 0.372 | 0.454
11 | 0.381 | 0.724 | 0.621 | NDLMEYAKQHG [ASS1_Y163] | 0.75 | 0.856 | 0.502 | 0.852 | 0.541 | 0.563 | 0.487 | 0.896 | 0.457 | 0.426 | 0.437 | 0.48 | 0.471
12 | 7.59 | 0.693 | 0.812 | NDTAGYFIIGG [SEL1L3_Y399] | 0.78 | 6.38 | 0.601 | 1.15 | 0.494 | 1.34 | 1.77 | 1.14 | 0.582 | 0.834 | 0.584 | 0.547 | 0.523
13 | 1.01 | 1.15 | 1.06 | NFFDTCIKTCL [IQGAP2_Y1445_Y1445C_YF] | 0.721 | 0.879 | 0.407 | 0.809 | 0.45 | 0.607 | 0.476 | 1.01 | 0.369 | 0.523 | 0.521 | 0.484 | 0.491
14 | 0.681 | 0.876 | 0.881 | NFNPNYCFAGK [ALK_Y1096_D1091N_YF] | 0.617 | 0.744 | 0.651 | 1.25 | 0.706 | 0.666 | 0.548 | 0.821 | 0.612 | 0.846 | 0.472 | 2.56 | 1.01
15 | 0.497 | 0.9 | 0.686 | NFRPGYNNFFN [USH2A_Y467_YF] | 0.574 | 0.712 | 0.466 | 0.773 | 0.389 | 0.549 | 0.519 | 0.772 | 0.522 | 0.433 | 0.64 | 0.354 | 0.483
16 | 6.01 | 0.903 | 18.8 | NGSKAYAYVHF [PABPC5_Y147_G146A] | 0.634 | 0.796 | 0.438 | 1.06 | 0.637 | 0.646 | 0.568 | 1.03 | 0.4 | 0.656 | 0.401 | 0.514 | 0.52
